# Legend:
# [1] = target: GST fused p85α-CSH2 (C-terminal Src-homology 2 domain of p85α) (UniProt P27986); experiment: pull-down; GST-CSH2 (~5 μg, E. coli expressed) incubated with equal amounts of in vitro translated TRβ1 or mutants, in the presence of T3; bound receptor detected by Western blot with anti-TRβ1; band intensities quantified with ImageJ
# [2] = target: T1, GST fused p85α-CSH2 (C-terminal Src-homology 2 domain of p85α) (UniProt P27986 623-706); experiment: as above; conditions: one partner purified
# T1 construct: C-terminal SH2 (CSH2) domain of the p85α regulatory subunit of PI3K; the limits 623-706 are told of the domain in the discussion, not in the methods of this assay; also called GST–CSH2; CSH2-conjugated to GST; source: E. coli expressed
# T1 sequence (P27986 623-706): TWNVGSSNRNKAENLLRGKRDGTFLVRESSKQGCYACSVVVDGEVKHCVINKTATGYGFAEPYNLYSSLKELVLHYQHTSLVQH
# Sequence of in vitro translated PV (P10828 whole entry): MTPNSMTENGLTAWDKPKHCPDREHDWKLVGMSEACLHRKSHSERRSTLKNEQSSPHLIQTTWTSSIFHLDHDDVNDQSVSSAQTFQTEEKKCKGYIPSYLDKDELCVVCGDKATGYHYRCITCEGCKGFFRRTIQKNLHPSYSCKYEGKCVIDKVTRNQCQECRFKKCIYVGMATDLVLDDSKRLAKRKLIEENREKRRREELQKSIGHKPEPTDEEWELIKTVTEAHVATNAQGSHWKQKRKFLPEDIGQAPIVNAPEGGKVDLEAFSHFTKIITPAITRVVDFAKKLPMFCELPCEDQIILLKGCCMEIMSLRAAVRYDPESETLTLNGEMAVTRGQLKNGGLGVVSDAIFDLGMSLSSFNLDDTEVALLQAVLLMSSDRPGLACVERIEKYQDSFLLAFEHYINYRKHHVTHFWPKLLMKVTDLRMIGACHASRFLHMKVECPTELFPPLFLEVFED
# Sequence of GST fused p85α-CSH2 (C-terminal Src-homology 2 domain of p85α) (UniProt P27986) (P27986 623-706): as the sequence (P27986 623-706) above
Molecule,fold association relative to TRβ1 [1],fold association relative to TRβ1 [2]
in vitro translated PV (from UniProt P10828 1-461) (receptor),3 fold,
"in vitro translated AM (receptor, human, UniProt P10828 1-461, looked up, source: in vitro translated (TNT T7 quick coupled kit, Promega)) MTPNSMTENGLTAWDKPKHCPDREHDWKLVGMSEACLHRKSHSERRSTLKNEQSSPHLIQTTWTSSIFHLDHDDVNDQSVSSAQTFQTEEKKCKGYIPSYLDKDELCVVCGDKATGYHYRCITCEGCKGFFRRTIQKNLHPSYSCKYEGKCVIDKVTRNQCQECRFKKCIYVGMATDLVLDDSKRLAKRKLIEENREKRRREELQKSIGHKPEPTDEEWELIKTVTEAHVATNAQGSHWKQKRKFLPEDIGQAPIVNAPEGGKVDLEAFSHFTKIITPAITRVVDFAKKLPMFCELPCEDQIILLKGCCMEIMSLRAAVRYDPESETLTLNGEMAVTRGQLKNGGLGVVSDAIFDLGMSLSSFNLDDTEVALLQAVLLMSSDRPGLACVERIEKYQDSFLLAFEHYINYRKHHVTHFWPKLLMKVTDLRMIGACHCQPLPAHEGGMPTELFPPLFLEVFED",,3 fold

# Reference: publication PMC4480739, “Oncogenic mutations of thyroid hormone receptor β” (Oncotarget, 2015)
